According to PMC2928751:

What was measured:
[1] = target: Gli3 D-site peptide (human); assay: peptide or protein array; 17-mer peptides linked by the C-terminus to a nitrocellulose membrane, in duplicate, probed with [35S]-methionine labelled JNK1; PhosphorImager signal normalised to MKK7-D2 = 100%
[2] = target: MLL4 D-site peptide (human); assay: as above
[3] = target: Neil1 D-site peptide (human); assay: as above
[4] = target: 35S-radiolabeled JNK1, P45983-2; assay: peptide array probed with 35S-labeled JNK1, Phosphorimager quantification; settings: read off a plot

## 35S-radiolabeled JNK1 (from UniProt P45983-2 1-384) (enzyme)
[1]
  binding normalised to the MKK7-D2 positive control: 193 % of MKK7-D2
[2]
  binding normalised to the MKK7-D2 positive control: 161 % of MKK7-D2
[3]
  binding normalised to the MKK7-D2 positive control: 198 % of MKK7-D2

## MKK7-D2 peptide (positive control) MKK7 Mut (alanine substitutions at the critical basic and hydrophobic residues; not printed)
[4]; parent: est. 100
  percent of parent (% of MKK7-D2 binding): 12

## MKK4 D-site peptide (positive control) MKK4 Mut (alanine substitutions at the critical basic and hydrophobic residues; not printed)
[4]; parent: est. 520
  response (% of MKK7-D2 binding): 28
